Experimental findings from US20230346919A1 are described below.

For the assay, the target named is Spike (S) protein of the SARS-CoV-2 clinical isolate, strain 2019 n-CoV/USA_WA1/2020 (SARS-CoV-2 strain 2019 n-CoV/USA_WA1/2020) (UniProt P0DTC2). Description: cell-based or functional assay.

Substance mAb S309 (antibody) displayed an EC50, neutralization of SARS-CoV-2 (FRNT, Vero E6 cells) of 81 ng/mL.

“human ACE2-Fc (hACE2 residues 1-615, HRV-3C site, human IgG1 Fc) (from UniProt Q9BYF1 18-615) (Fc fusion)”: the EC50, inhibition of SARS-CoV-2 infection (FRNT, Vero E6 cells) was determined as 12.6 µg/mL.
